From patent US20070243181

Columns and labels:
[1] = biological target: myc-IRAK1c
[2] = biological target: myc-IRAK1c-KD
Sequence of myc-IRAK1c-KD (chain, as listed by the source): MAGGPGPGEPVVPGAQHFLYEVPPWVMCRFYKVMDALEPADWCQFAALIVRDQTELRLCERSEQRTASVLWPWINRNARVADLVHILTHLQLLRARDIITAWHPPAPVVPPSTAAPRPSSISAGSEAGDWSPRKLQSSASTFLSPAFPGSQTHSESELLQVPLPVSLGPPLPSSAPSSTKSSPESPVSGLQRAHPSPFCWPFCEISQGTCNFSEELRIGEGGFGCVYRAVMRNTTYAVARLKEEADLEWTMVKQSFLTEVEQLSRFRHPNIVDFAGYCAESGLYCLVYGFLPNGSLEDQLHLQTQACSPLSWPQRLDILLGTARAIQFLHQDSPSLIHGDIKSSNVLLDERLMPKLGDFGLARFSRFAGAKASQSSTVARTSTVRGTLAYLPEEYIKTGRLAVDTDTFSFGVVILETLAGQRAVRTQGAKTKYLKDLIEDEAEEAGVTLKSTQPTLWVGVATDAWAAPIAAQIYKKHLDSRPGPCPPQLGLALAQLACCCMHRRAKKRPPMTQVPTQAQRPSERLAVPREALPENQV

Sequence of myc-IRAK1c (chain, as listed by the source): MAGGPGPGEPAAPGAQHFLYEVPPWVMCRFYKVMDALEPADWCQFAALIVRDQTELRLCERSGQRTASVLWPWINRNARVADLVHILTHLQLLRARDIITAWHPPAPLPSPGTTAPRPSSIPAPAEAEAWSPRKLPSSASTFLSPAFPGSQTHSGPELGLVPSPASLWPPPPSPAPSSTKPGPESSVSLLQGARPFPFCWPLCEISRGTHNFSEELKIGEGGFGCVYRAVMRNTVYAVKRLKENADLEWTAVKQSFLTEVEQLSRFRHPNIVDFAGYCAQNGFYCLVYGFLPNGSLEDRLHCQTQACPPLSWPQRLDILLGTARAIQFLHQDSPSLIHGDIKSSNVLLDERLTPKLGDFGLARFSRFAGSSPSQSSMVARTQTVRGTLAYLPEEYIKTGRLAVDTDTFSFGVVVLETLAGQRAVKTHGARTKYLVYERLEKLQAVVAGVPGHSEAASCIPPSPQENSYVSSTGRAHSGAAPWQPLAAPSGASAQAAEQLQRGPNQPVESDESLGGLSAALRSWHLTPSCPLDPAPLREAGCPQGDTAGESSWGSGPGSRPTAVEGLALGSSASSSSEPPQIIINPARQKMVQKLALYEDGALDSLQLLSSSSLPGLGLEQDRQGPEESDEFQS

B1: recombinant IRAK4 (protein)
chain: MNKPITPSTYVRCLNVGLIRKLSDFIDPQEGWKKLAVAIKKPSGDDRYNQFHIRRFEALLQTGKSPTSELLFDWGTTNCTVGDLVDLLIQNEFFAPASLLLPDAVPKTANTLPSKEAITVQQKQMPFCDKDRTLMTPVQNLEQSYMPPDSSSPENKSLEVSDTRFHSFSFYELKNVTNNFDERPISVGGNKMGEGGFGVVYKGYVNNTTVAVKKLAAMVDITTEELKQQFDQEIKVMAKCQHENLVELLGFSSDGDDLCLVYVYMPNGSLLDRLSCLDGTPPLSWHMRCKIAQGAANGINFLHENHHIHRDIKSANILLDEAFTAKISDFGLARASEKFAQTVMTSRIVGTTAYMAPEALRGEITPKSDIYSFGVVLLEIITGLPAVDEHREPQLLLDIKEEIEDEEKTIEDYIDKKMNDADSTSVEAMYSVASQCLHEKKNKRPDIKKVQQLLQEMTAS
in vitro kinase assay on anti-myc immunoprecipitates, autoradiography [1]: Neither IPAK1c nor IPAK1c-KD showed any phosphorylation in the presence of IRAK4
in vitro kinase assay on anti-myc immunoprecipitates, autoradiography [2]: Neither IPAK1c nor IPAK1c-KD showed any phosphorylation in the presence of IRAK4
